Reference: paper PMC11772155, “Solid-Phase-Supported Chemoenzymatic Synthesis and Analysis of Chondroitin Sulfate Proteoglycan Glycopeptides” (Angewandte Chemie (International ed. in English), 2024)
Each block holds one molecule with its values, some of them ahead of it. Numbered stars: 1 amine (or outer) side, 2 acyl side, 3 side chain; on linkers, the order of the positions; unused ones are H or OH. Square brackets hold non-standard residues; d marks the D form. Ends that are not written are not given here. Peptide text beside a SMILES is read from it. X1 = CC(=O)N[C@H]1[C@H](O[C@H]2[C@H](O)[C@@H](O)[C@H](O[C@H]3[C@@H](O)[C@@H](CO)O[C@@H](O[C@H]4[C@@H](O)[C@@H](CO)O[C@@H](O[C@@H]5CO[C@@H](OC[C@H](N[*:1])C(=O)[*:2])[C@H](O)[C@H]5O)[C@@H]4O)[C@@H]3O)O[C@@H]2C(=O)O)O[C@H](CO)[C@H](OS(=O)(=O)O)[C@@H]1O[C@@H]1O[C@H](C(=O)O)[C@@H](O[C@@H]2O[C@H](CO)[C@H](OS(=O)(=O)O)[C@H](O[C@@H]3O[C@H](C(=O)O)[C@@H](O[C@@H]4O[C@H](CO)[C@H](O)[C@H](O[C@@H]5O[C@H](C(=O)O)[C@@H](O)[C@H](O)[C@H]5O)[C@H]4NC(C)=O)[C@H](O)[C@H]3O)[C@H]2NC(C)=O)[C@H](O)[C@H]1O

How the values were obtained:
[1] = target: T1, Human Neutrophil Cathepsin G (Homo sapiens, UniProt P08311); test: BLI (biolayer interferometry) binding assay of immobilized biotinylated compounds with Cathepsin G; conditions: biotinylated compounds immobilized on streptavidin sensors, Cathepsin G at 2000, 1000, 500, 250 nM in PBS containing 0.005% P20, read-out: KD (nM) with Cathepsin G
T1 construct: Human Neutrophil Cathepsin G was purchased from Athens; purchased Athens Research & Technology, Inc. (Athens, Georgia)
T1 sequence (P08311 21-243 limits assumed): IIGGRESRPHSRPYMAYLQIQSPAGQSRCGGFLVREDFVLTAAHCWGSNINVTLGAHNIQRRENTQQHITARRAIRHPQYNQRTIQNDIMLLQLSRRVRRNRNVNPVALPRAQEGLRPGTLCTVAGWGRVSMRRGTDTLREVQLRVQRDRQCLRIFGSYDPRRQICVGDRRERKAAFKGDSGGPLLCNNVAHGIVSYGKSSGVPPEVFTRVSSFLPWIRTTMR
Excerpt: With structurally defined glycopeptides in hand, we aim to better understand the structural features needed for bikunin glycopeptide binding. Cathepsin G (CatG), a neutrophil serine protease, plays a crucial role in regulating various physiological processes, including inflammation, digestion, smooth muscle contraction, and tissue remodeling.[64] While CatG has been reported to interact with CSPG, the structural requirement of CSPG binding has not been established.[25] To measure the binding affinity towards CatG, peptides 5 and glycopeptides 10, 18–21 were biotinylated and immobilized on streptavidin coated sensors for biolayer interferometry (BLI) studies. Biotinylated 50 kDa CS and CS-A were also immobilized on the sensors for comparison. […]
General procedure of glycopeptide biotinylation
To a solution of peptide or glycopeptide in DMSO/H 2O (1/1, 0.1 ml) was added NHS-LC-Biotin (4 equiv.) and diisoproylethylamine (pH ~ 8.5). The reaction was incubated at 37 °C for 2 h. Then the mixture was dried in vacuo and purified by HPLC.
General procedure for BLI binding assay
The binding assay was performed on the Octet K2 System (Pall ForteBio). The biotinylated compounds were incubated with streptavidin (SA) sensors for 2 min. The sensor was then balanced in the assay buffer (PBS containing 0.005% P20) and dipped into Cathepsin G solution in assay buffer at 2000 nM, 1000 nM, 500 nM, 250 nM concentrations.
After 5 min of association, the sensor was brought back to the previous assay buffer for a 5 min dissociation step. At the end of the assay, the sensor was regenerated in 2 M NaCl to remove the bound protein. Each measurement was repeated 3 times on the same sensor. The control assay was performed with another sensor loaded with a 2 mM biotin solution.
Figure S3. Binding of peptide and glycopeptides a) 5, b) 10 , c) 18 , d) 19 , e) 20 , f) 21 , g) commercially available biotinylated 50 kDa CS, and h) 50 kDa CS-A to neutrophil Cathepsin G as measured by BLI ( a-h respectively). The biotinylated compounds (50 nM) were immobilized on streptavidin coated biosensors, and human neutrophil Cathepsin G was captured on biosensors with four concentrations at 2000 nM, 1000 nM, 500 nM, 250 nM.
Fitting curves were shown in red lines. […]

[2] = target: biotinylated sulfated 10-mer CS-bearing glycopeptide 20 (bikunin); test: BLI; biotinylated peptide or glycopeptides immobilised on streptavidin coated sensors; cathepsin G in solution
[3] = target: biotinylated tetrasaccharide linkage region bearing glycopeptide 10 (bikunin); test: as above
[4] = target: biotinylated sulfated 12-mer CS-bearing glycopeptide 21 (bikunin); test: as above
[5] = target: biotinylated sulfated 8-mer CS-bearing glycopeptide 19 (bikunin); test: as above
[6] = target: biotinylated non-sulfated chondroitin dodecasaccharide glycopeptide 18 (bikunin); test: as above

Molecule: CC(=O)N[C@H]1[C@H](O[C@H]2[C@H](O)[C@@H](O)[C@H](O[C@H]3[C@@H](O)[C@@H](CO)O[C@@H](O[C@H]4[C@@H](O)[C@@H](CO)O[C@@H](O[C@@H]5CO[C@@H](OC[C@H](NC(=O)CNC(=O)[C@H](CCC(=O)O)NC(=O)[C@H](CCC(=O)O)NC(=O)[C@H](CCC(=O)O)NC(=O)[C@H](CCC(N)=O)NC(=O)[C@@H]6CCCN6C(=O)[C@H](CC(C)C)NC(=O)[C@@H](NC(=O)[C@H](C)N)C(C)C)C(=O)NCC(=O)NCC(=O)NCC(=O)N[C@@H](CCC(N)=O)C(=O)N[C@@H](CC(C)C)C(=O)N[C@H](C(=O)N[C@H](C(=O)N[C@@H](CCC(=O)O)C(=O)N[C@H](C(=O)N[C@H](C(=O)N[C@@H](CCCCN)C(=O)N[C@@H](CCCCN)C(=O)N[C@@H](CCC(=O)O)C(=O)N[C@@H](CC(=O)O)C(=O)N[C@@H](CO)C(=O)O)[C@@H](C)O)C(C)C)[C@@H](C)O)C(C)C)[C@H](O)[C@H]5O)[C@@H]4O)[C@@H]3O)O[C@@H]2C(=O)O)O[C@H](CO)[C@H](OS(=O)(=O)O)[C@@H]1O[C@@H]1O[C@H](C(=O)O)[C@@H](O[C@@H]2O[C@H](CO)[C@H](OS(=O)(=O)O)[C@H](O[C@@H]3O[C@H](C(=O)O)[C@@H](O[C@@H]4O[C@H](CO)[C@H](O)[C@H](O[C@@H]5O[C@H](C(=O)O)[C@@H](O)[C@H](O)[C@H]5O)[C@H]4NC(C)=O)[C@H](O)[C@H]3O)[C@H]2NC(C)=O)[C@H](O)[C@H]1O [Compound 20] (H-AVLPQEEEG[X1]GGGQLVTEVTKKEDS-OH; N-terminus and C-terminus assumed)
Kd [1]: 74 ± 7 nM

Molecule: CC(=O)N[C@H]1[C@H](O[C@H]2[C@H](O)[C@@H](O)[C@H](O[C@H]3[C@@H](O)[C@@H](CO)O[C@@H](O[C@H]4[C@@H](O)[C@@H](CO)O[C@@H](O[C@@H]5CO[C@@H](OC[C@H](NC(=O)CNC(=O)[C@H](CCC(=O)O)NC(=O)[C@H](CCC(=O)O)NC(=O)[C@H](CCC(=O)O)NC(=O)[C@H](CCC(N)=O)NC(=O)[C@@H]6CCCN6C(=O)[C@H](CC(C)C)NC(=O)[C@@H](NC(=O)[C@H](C)N)C(C)C)C(=O)NCC(=O)NCC(=O)NCC(=O)N[C@@H](CCC(N)=O)C(=O)N[C@@H](CC(C)C)C(=O)N[C@H](C(=O)N[C@H](C(=O)N[C@@H](CCC(=O)O)C(=O)N[C@H](C(=O)N[C@H](C(=O)N[C@@H](CCCCN)C(=O)N[C@@H](CCCCN)C(=O)N[C@@H](CCC(=O)O)C(=O)N[C@@H](CC(=O)O)C(=O)N[C@@H](CO)C(=O)O)[C@@H](C)O)C(C)C)[C@@H](C)O)C(C)C)[C@H](O)[C@H]5O)[C@@H]4O)[C@@H]3O)O[C@@H]2C(=O)O)O[C@H](CO)[C@H](OS(=O)(=O)O)[C@@H]1O[C@@H]1O[C@H](C(=O)O)[C@@H](O[C@@H]2O[C@H](CO)[C@H](OS(=O)(=O)O)[C@H](O[C@@H]3O[C@H](C(=O)O)[C@@H](O[C@@H]4O[C@H](CO)[C@H](OS(=O)(=O)O)[C@H](O[C@@H]5O[C@H](C(=O)O)[C@@H](O[C@@H]6O[C@H](CO)[C@H](O)[C@H](O[C@@H]7O[C@H](C(=O)O)[C@@H](O)[C@H](O)[C@H]7O)[C@H]6NC(C)=O)[C@H](O)[C@H]5O)[C@H]4NC(C)=O)[C@H](O)[C@H]3O)[C@H]2NC(C)=O)[C@H](O)[C@H]1O [Compound 21]
Kd [1]: 56 ± 8 nM

Kd [2]: 74 nM
Kd [3]: 650 nM
Kd [4]: 56 nM
Kd [5]: 49 nM
Kd [6]: 490 nM
Molecule: Cathepsin G (from UniProt P08311 21-244) (enzyme)

Kd [1]: 400 ± 40 nM
Molecule: H-AVLPQEEEGSGGGQLVTEVTKKEDS [Compound 5]
